# Assay results as given in US20120201826A1 (NOV IMMUNE S A, published 2012).
# T1: recombinant human RANTES (huRANTES, Peprotech) (human, UniProt P13501 24-91)
# T1 sequence: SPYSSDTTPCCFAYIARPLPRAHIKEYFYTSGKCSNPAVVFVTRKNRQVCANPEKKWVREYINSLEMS
# T2: native human RANTES produced by THP1 cells (human, UniProt P13501 24-91)
# T2 sequence: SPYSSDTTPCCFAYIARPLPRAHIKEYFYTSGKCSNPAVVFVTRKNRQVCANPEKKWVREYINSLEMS
# T3: NusA-cynoRANTES fusion protein (cynomolgus monkey, UniProt Q8HYQ1 24-91 (rhesus entry), biotinylated in vivo at the AviTag)
# T3 construct: also called cynomolgus RANTES; not shown: NusA fusion partner of expression plasmid pET43 (Novagen); Factor X protease cleavage site at the C-terminus of NusA; AviTag biotinylation site at the C-terminus of the chemokine
# T3 sequence: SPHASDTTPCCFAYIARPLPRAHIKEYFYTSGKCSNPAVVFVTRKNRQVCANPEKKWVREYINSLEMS
# T4: ratIP-10 (rat, UniProt P48973)
# T4 construct: coated protein of the ELISA panel
# T4 sequence (chemokine, looked up): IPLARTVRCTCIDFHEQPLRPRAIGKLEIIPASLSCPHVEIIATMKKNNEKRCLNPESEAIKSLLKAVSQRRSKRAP
# T5: moIP-10 (mouse, UniProt P17515)
# T5 construct: coated protein of the ELISA panel; also called mouse IP-10
# T5 sequence (chemokine, looked up): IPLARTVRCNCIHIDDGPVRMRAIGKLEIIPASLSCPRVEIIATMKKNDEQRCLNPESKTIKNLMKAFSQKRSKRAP
# T6: NusA-huRANTES fusion protein (human, UniProt P13501 24-91, biotinylated in vivo at the AviTag)
# T6 construct: GenBank M21121 is printed for the human RANTES gene; also called NusA-Rantes; not shown: NusA fusion partner of expression plasmid pET43 (Novagen); Factor X protease cleavage site at the C-terminus of NusA; AviTag biotinylation site at the C-terminus of the chemokine
# T6 sequence: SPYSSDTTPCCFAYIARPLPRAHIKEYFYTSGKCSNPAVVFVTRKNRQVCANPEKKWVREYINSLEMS
# B1: 1E4 antibody, IgG1 format (antibody, V domains shown)
# VH: QVQLVQSGAEVKKPGASVKVSCKVSGYTLTEFAMHWVRQAPGKGLEWMGGFVPEDGETIYAQKFQGRVTMTEDTSTDTAYMELSSLRSEDTAVYYCATDPLYEGSFSVWGQGTTVTVSS
# VL: SYVLTQPPSVSVAPGQTARITCGGNNIESKSVHWYQQKPGQAPVLVVYDDSDRPSGIPERFSGSNSGNTATLTISRVEAGDEADYYCQVWDSNTDHWVFGGGTKLTVLG
# notes: also called antibody 1E4 purified from CHO supernatant
# Tests used:
# [1] = molecular target: T1, recombinant human RANTES (huRANTES, …); assay: cell-based or functional assay
# [2] = molecular target: T2, native human RANTES produced by THP1 …; assay: cell-based or functional assay
# [3] = molecular target: T1, recombinant human RANTES (huRANTES, …); assay: cell-based or functional assay; remark: listed apart in the source
# [4] = molecular target: T3, NusA-cynoRANTES fusion protein; assay: ELISA: chemokine fusion protein coated at 5 µg/ml, titration of 1E4, anti-human Fc-gamma-HRP and fluorescent substrate
# [5] = molecular target: T7, mouse RANTES, expressed as fusion protein (ELISA panel) (mouse, UniProt P30882 24-91, Biotinylated in vivo at the AviTag, which is not in the letters); assay: as above
# T7 construct: not shown: NusA fusion partner with Factor X site, and the C-terminal AviTag
# ratIP-10 = molecular target: T4, ratIP-10; assay: as above
# moIP-10 = molecular target: T5, moIP-10; assay: as above
# [6] = molecular target: T6, NusA-huRANTES fusion protein; assay: as above
# [7] = molecular target: T8, mouse RANTES, biotinylated in vivo (Example 14) (mouse, UniProt P30882 24-91, biotinylated in vivo at the AviTag); assay: ELISA: biotinylated chemokine captured on Streptawell plate, 1E4 at 1 µg/ml, goat anti-human IgG Fc-gamma-HRP, TMB, OD450
# T8 construct: Captured on streptavidin plates; not shown: AviTag biotinylation site at the C-terminus
# Procedure: Three mutants of mouse RANTES were generated by site directed mutagenesis in order to introduce the human residues at those positions: [S16A/L17R/A18P]; [S32G/L37P] and [Q59R/Y64S]. […] These variant of mouse RANTES were captured in streptavidin coated plates (Streptawell, Roche). […] The plate was washed and incubated with a goat anti-human IgG Fcγ-specific antibody coupled to horse radish peroxidase (Jackson). […] The plates were read at 450 nm.
# [8] = molecular target: T2, native human RANTES produced by THP1 …; assay: cell-based or functional assay; remark: listed apart in the source
# [9] = molecular target: T3, NusA-cynoRANTES fusion protein; assay: SPR (Biacore 2000), 1E4 captured on anti-human IgG, chemokine as analyte, 25 C, 1:1 Langmuir fit
# Procedure: (§1) 433 RU (response unit) of a donkey anti-human IgG polyclonal antibody were immobilized by EDC/NHS chemistry on a C1 Biacore chip. […] The surface was regenerated after each cycle by injection of 10 mM glycine pH=2 at 30 μL/min, for 60s followed by 1 min. of stabilization time in HBS-EP buffer.
# (§2) All proteins were diluted in the running buffer HBS-EP buffer (Biacore AB, Uppsala, Sweden). Injection was performed at 75 μl/min for 3 min. followed by 15 min. of dissociation time and the temperature was set at 25° C.
# [10] = molecular target: T1, recombinant human RANTES (huRANTES, …); assay: as above
# Procedure: as §1, §2
# [11] = molecular target: T6, NusA-huRANTES fusion protein; assay: as above
# Procedure: as §1, §2
# [12] = molecular target: T1, recombinant human RANTES (huRANTES, …); assay: cell-based or functional assay; remark: listed apart in the source
# [13] = molecular target: T9, rat RANTES, expressed as fusion protein (ELISA panel) (rat, UniProt P30882 24-91 (mouse entry), Biotinylated in vivo at the AviTag, which is not in the letters); assay: ELISA, chemokine coated at 5 ug/ml, concentration range of 1E4
# T9 construct: not shown: NusA fusion partner with Factor X site, and the C-terminal AviTag
# T9 sequence (P30882 24-91 limits assumed): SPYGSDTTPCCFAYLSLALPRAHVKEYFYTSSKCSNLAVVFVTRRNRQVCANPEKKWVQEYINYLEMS
# T8 sequence (P30882 24-91): as the sequence (P30882 24-91 limits assumed) above
# T7 sequence (P30882 24-91 limits assumed): as above
binder,measurement,setting,value
B1,Calcium flux IC50 (nM); L1.2-hCCR1; 25 nM huRANTES,[1],4.9 nM
same,Calcium flux IC50 (nM); L1.2-hCCR3; 25 nM huRANTES,[1],4.46 nM
same,Calcium flux IC50 (nM); L1.2-hCCR5; 4 nM huRANTES,[1],0.54 nM
same,Chemotaxis IC50 (nM); L1.2-hCCR5; 1 nM native huRANTES,[2],0.09 nM
same,Chemotaxis IC50 (nM); L1.2-hCCR1; 2 nM huRANTES,[3],0.46 nM
same,Chemotaxis IC50 (nM); L1.2-hCCR3; 10 nM huRANTES,[3],3.33 nM
same,Chemotaxis IC50 (nM); L1.2-hCCR5; 1 nM huRANTES,[3],0.2 nM
same,EC50 (read off the curve),[4],~0.01 µg/mL
same,binding result,[5],no binding (tested: about 3 µg/ml)
same,binding result,ratIP-10,no binding (tested: about 3 µg/ml)
same,binding result,moIP-10,no binding (tested: about 3 µg/ml)
same,EC50 (read off the curve),[6],~0.01 µg/mL
same,binding result,[7],no binding (tested: 1 µg/ml)
same,"Chemotaxis IC50 (nM), native huRANTES from THP1 cells; L1.2-hCCR5 cells; IgG1 format",[8],0.028 nM
same,Kd,[9],2.24 nM
same,Kd,[10],0.455 nM
same,Kd,[11],0.447 nM
same,"Chemotaxis IC50 (nM), 0.2 nM huRANTES; L1.2-hCCR5 cells; IgG1 format",[12],0.034 nM
same,"Chemotaxis IC50 (nM), 1 nM huRANTES; L1.2-hCCR5 cells; IgG1 format",[12],0.46 nM
same,binding result,[13],no binding
